This is an account of results in paper PMC5499549, “DNA substrate recognition and processing by the full-length human UPF1 helicase”.

In data set [1] the target is T1, hUPF1 (full-length) (Homo sapiens, UniProt Q92900-2 1-1118).
T1 sequence: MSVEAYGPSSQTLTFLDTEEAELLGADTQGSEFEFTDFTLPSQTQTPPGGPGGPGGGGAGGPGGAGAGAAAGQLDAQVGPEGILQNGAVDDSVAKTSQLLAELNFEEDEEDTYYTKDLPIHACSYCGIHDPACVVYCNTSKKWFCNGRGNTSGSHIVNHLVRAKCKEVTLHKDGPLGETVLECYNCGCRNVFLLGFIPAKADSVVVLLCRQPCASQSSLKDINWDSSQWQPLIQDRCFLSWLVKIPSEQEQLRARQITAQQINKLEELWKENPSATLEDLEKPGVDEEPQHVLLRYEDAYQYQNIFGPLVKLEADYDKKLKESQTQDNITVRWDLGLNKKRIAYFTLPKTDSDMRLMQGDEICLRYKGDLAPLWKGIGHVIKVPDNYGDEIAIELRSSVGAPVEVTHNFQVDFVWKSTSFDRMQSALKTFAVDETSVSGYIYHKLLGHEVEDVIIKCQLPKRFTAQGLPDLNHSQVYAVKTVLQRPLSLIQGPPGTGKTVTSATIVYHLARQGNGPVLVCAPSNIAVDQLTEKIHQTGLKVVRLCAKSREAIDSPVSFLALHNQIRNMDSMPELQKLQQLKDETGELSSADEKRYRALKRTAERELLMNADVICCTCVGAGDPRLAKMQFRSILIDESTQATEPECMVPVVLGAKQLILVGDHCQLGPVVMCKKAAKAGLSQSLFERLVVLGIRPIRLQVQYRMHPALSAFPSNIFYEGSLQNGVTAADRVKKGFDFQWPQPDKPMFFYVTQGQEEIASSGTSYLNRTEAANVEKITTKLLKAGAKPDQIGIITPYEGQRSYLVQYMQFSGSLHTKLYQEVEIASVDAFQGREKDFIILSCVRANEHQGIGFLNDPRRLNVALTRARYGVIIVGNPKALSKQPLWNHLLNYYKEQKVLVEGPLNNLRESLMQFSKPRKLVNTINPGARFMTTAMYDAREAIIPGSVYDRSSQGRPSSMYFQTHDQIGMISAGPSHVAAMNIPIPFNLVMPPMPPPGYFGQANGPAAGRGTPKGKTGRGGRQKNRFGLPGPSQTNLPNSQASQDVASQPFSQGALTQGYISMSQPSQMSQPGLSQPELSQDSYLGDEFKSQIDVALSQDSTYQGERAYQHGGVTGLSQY
Kind of data set: competition; vs 0.25 nM 32P-DNA35, 10 nM hUPF1; 25 mM HEPES-NaOH pH 7.2, 135 mM NaCl, 2 mM DTT, 1 mg/ml acetylated BSA, 0.1% NP40, 20 min; EMSA 20 C, MST 22 C (20 nM DNA); no nucleotide cofactor or Mg2+ unles. As to conditions: protein: recombinant, tags: GST and His tags removed (thrombin, TEV), residual ENLYFQ linker likely at C-terminus. On the technique in general: In EMSA bound probe runs differently from free probe, usually more slowly.

For data set [2], the target named is T1, hUPF1 (full-length). The experiment in a line: EMSA; most or all bound at top concentrations; multimerization; 25 mM HEPES-NaOH pH 7.2, 135 mM NaCl, 2 mM DTT, 1 mg/ml acetylated BSA, 0.1% NP40, 20 min; EMSA 20 C, MST 22 C (20 nM DNA); no nucleotide cofactor or Mg2+ unles. As to conditions: protein: recombinant; tags: GST and His tags removed (thrombin, TEV); residual ENLYFQ linker likely at C-terminus; label: 32P.

In data set [3] the target is T1, hUPF1 (full-length). Kind of data set: EMSA; 25 mM HEPES-NaOH pH 7.2, 135 mM NaCl, 2 mM DTT, 1 mg/ml acetylated BSA, 0.1% NP40, 20 min; EMSA 20 C, MST 22 C (20 nM DNA); no nucleotide cofactor or Mg2+ unles. The settings on record: protein: recombinant; tags: GST and His tags removed (thrombin, TEV); residual ENLYFQ linker likely at C-terminus; label: 5' 32P (EMSA).

For data set [4], the target named is T1, hUPF1 (full-length). The experiment in a line: MST; fit up to 156 nM hUPF1; 25 mM HEPES-NaOH pH 7.2, 135 mM NaCl, 2 mM DTT, 1 mg/ml acetylated BSA, 0.1% NP40, 20 min; EMSA 20 C, MST 22 C (20 nM DNA); no nucleotide cofactor or Mg2+ unles. The settings on record: protein: recombinant; tags: GST and His tags removed (thrombin, TEV); residual ENLYFQ linker likely at C-terminus; label: 5' Alexa 647.

The target of data set [5] is T1, hUPF1 (full-length). Kind of data set: EMSA; equivalent to G4 ss precursor; 25 mM HEPES-NaOH pH 7.2, 135 mM NaCl, 2 mM DTT, 1 mg/ml acetylated BSA, 0.1% NP40, 20 min; EMSA 20 C, MST 22 C (20 nM DNA); no nucleotide cofactor or Mg2+ unles. As to conditions: protein: recombinant; tags: GST and His tags removed (thrombin, TEV); residual ENLYFQ linker likely at C-terminus; label: 32P.

Data set [6] has as its target T1, hUPF1 (full-length). The experiment in a line: EMSA; 25 mM HEPES-NaOH pH 7.2, 135 mM NaCl, 2 mM DTT, 1 mg/ml acetylated BSA, 0.1% NP40, 20 min; EMSA 20 C, MST 22 C (20 nM DNA); no nucleotide cofactor or Mg2+ unles. As to conditions: protein: recombinant; tags: GST and His tags removed (thrombin, TEV); residual ENLYFQ linker likely at C-terminus; label: 32P (EMSA).

In data set [7] the target is T1, hUPF1 (full-length). The experiment in a line: MST; biphasic, low-amplitude first phase; 25 mM HEPES-NaOH pH 7.2, 135 mM NaCl, 2 mM DTT, 1 mg/ml acetylated BSA, 0.1% NP40, 20 min; EMSA 20 C, MST 22 C (20 nM DNA); no nucleotide cofactor or Mg2+ unles. As to conditions: protein: recombinant; tags: GST and His tags removed (thrombin, TEV); residual ENLYFQ linker likely at C-terminus; label: 5' Alexa 647.

In data set [8] the target is T1, hUPF1 (full-length). The experiment in a line: EMSA; no nucleotide cofactor; 25 mM HEPES-NaOH pH 7.2, 135 mM NaCl, 2 mM DTT, 1 mg/ml acetylated BSA, 0.1% NP40, 20 min; EMSA 20 C, MST 22 C (20 nM DNA); no nucleotide cofactor or Mg2+ unles. The settings on record: protein: recombinant; tags: GST and His tags removed (thrombin, TEV); residual ENLYFQ linker likely at C-terminus; label: 5' 32P (EMSA).

The target of data set [9] is T1, hUPF1 (full-length). The experiment in a line: MST; second experimental group; fit up to 156 nM; 25 mM HEPES-NaOH pH 7.2, 135 mM NaCl, 2 mM DTT, 1 mg/ml acetylated BSA, 0.1% NP40, 20 min; EMSA 20 C, MST 22 C (20 nM DNA); no nucleotide cofactor or Mg2+ unles. As to conditions: protein: recombinant; tags: GST and His tags removed (thrombin, TEV); residual ENLYFQ linker likely at C-terminus; label: 5' Alexa 647.

Data set [10] has as its target T1, hUPF1 (full-length). The experiment in a line: MST; fit up to 313 nM hUPF1; 25 mM HEPES-NaOH pH 7.2, 135 mM NaCl, 2 mM DTT, 1 mg/ml acetylated BSA, 0.1% NP40, 20 min; EMSA 20 C, MST 22 C (20 nM DNA); no nucleotide cofactor or Mg2+ unles. As to conditions: protein: recombinant; tags: GST and His tags removed (thrombin, TEV); residual ENLYFQ linker likely at C-terminus; label: 5' Alexa 647.

Data set [11] addresses T1, hUPF1 (full-length). The experiment in a line: MST; 25 mM HEPES-NaOH pH 7.2, 135 mM NaCl, 2 mM DTT, 1 mg/ml acetylated BSA, 0.1% NP40, 20 min; EMSA 20 C, MST 22 C (20 nM DNA); no nucleotide cofactor or Mg2+ unles. The settings on record: protein: recombinant; tags: GST and His tags removed (thrombin, TEV); residual ENLYFQ linker likely at C-terminus; label: 5' Alexa 647.

For the molecule UUUUUUUUUUUUUUUUUUUUUUUUUUUUUUUUUUU (ssRNA) [(U)35], the IC50 (in general, the concentration that gives 50% inhibition) with hUPF1 (full-length) [1] (label: 32P (EMSA)) was found to be 0.0123 µM.

B1: d(T)55 (ssDNA)
DNA: TTTTTTTTTTTTTTTTTTTTTTTTTTTTTTTTTTTTTTTTTTTTTTTTTTTTTTT
On to B1, for which the binding result with hUPF1 (full-length) [2] is listed as “binds”.
As for CACAAGCAACCAATCGGTTCGACACTCATACTGGC (ssDNA) [DNA35], the IC50 with hUPF1 (full-length) [1] (label: 5' 32P (EMSA)) worked out at 0.0315 µM. In addition, the binding signal with hUPF1 (full-length) [3] is ~3 fold higher affinity than RNA35.
With CACAAGCAACCAATCGGTTCGACACTCATACTGGC (ssDNA) [DNA35-Alexa647], the Kd (as a rule, a measure of binding affinity in units of concentration) with hUPF1 (full-length) [4] turned out to be 0.0098 ± 0.001 µM.
Consider CACAAGCAACCAAUCGGUUCGACACUCAUACUGGC (ssRNA) [RNA35], for which, in the data set with hUPF1 (full-length) [1] (label: 32P (EMSA)), the IC50 worked out at 0.0504 µM.
On to TTTTTTTTTTTTTTTTTT (ssDNA) [d(T)18], for which the binding result in the data set with hUPF1 (full-length) [5] was “binds”.
Take AAAAAAAAAAAAAAAAAAAAAAAAAAAAAAAAAAA (ssRNA) [(A)35]: the IC50 with hUPF1 (full-length) [1] (label: 32P (EMSA)) is 0.172 µM. For the same molecule, the binding signal with hUPF1 (full-length) [6] was ~5 fold higher affinity than (C)35.
Take AAAAAAAAAAAAAAAAAAAAAAAAAAAAAAAAAAA (ssDNA) [d(A)35-Alexa647]: the Kd with hUPF1 (full-length) [7] stood at 4.2 ± 3.73 µM.
TTTTTTTTTTTTTTTTTTTTTTTTTTTTTTTTTTT (ssDNA) [d(T)35]: in the data set with hUPF1 (full-length) [8], the Kd was approximately 0.001 µM. Further, the IC50 with hUPF1 (full-length) [1] (label: 5' 32P (EMSA)) worked out at 0.0115 µM. Besides, the binding signal with hUPF1 (full-length) [3] was ~2 fold higher affinity than (U)35.
As for TTTTTTTTTTTTTTTTTTTTTTTTTTTTTTTTTTT (ssDNA) [d(T)35-Alexa647], the Kd with hUPF1 (full-length) [4] is 0.00405 ± 0.00058 µM; in the data set with hUPF1 (full-length) [9] it was 0.00601 ± 0.00085 µM.
For TTTTTTTTTTTTTTTTTTTTTTTTT (ssDNA) [d(T)25-Alexa647], the Kd with hUPF1 (full-length) [10] came to 0.00598 ± 0.00051 µM.
Regarding TTTTTTTTTTTTTTT (ssDNA) [d(T)15-Alexa647], the Kd with hUPF1 (full-length) [11] came out at 0.0394 ± 0.0036 µM.
As to TTTTTTTTTTTTTTTTTTTTTTTTTTTTTTTTTTTTTTTTTTTTT (ssDNA) [d(T)45], in the data set with hUPF1 (full-length) [2], the binding result is on record as “binds”.
